Experimental findings from patent publication US20130089868A1 are described below.

Some results are limits rather than exact numbers.

The target in the assay is MLS-NR2B (mitochondrial targeting signal sequence, myc-epitope, GST and NR2B residues 1271-1311) [GST: P08515]. The assay can be described thus: percentage of green fluorescent HEK-293 cells with GFP clustering after Ca^2+ influx (FIG. 5).

In the case of “GFP-T286D-α-CaMKII (from UniProt P11275 1-478) (enzyme)”, the fold increase of the cell count against wild-type GFP-α-CaMKII was > 2 fold.
